Measurements published in the DeepSol protein solubility set.

Assay: soluble on expression in E. coli; label from the status in PepcDB or PDB records

| Sequence | soluble on expression in E. coli |
| --- | --- |
| MATVTKAPKKQIQFADDMQEFTKFPTKTGRRSLSRSISQSSTDSYSSAASYTDSSDDEVSPREKQQTNSKGSSNFCVKNIKQAEFGRREIEIAEQDMSALISLRKRAQGEKPLAGAKIVGCTHITAQTAVLIETLCALGAQCRWSACNIYSTQNEVAAALAEAGVAVFAWKGESEDDFWWCIDRCVNMDGWQANMILDDGGDLTHWVYKKYPNVFKKIRGIVEESVTGVHRLYQLSKAGKLCVPAMNVNDSVTKQKFDNLYCCRESILDGLKRTTDVMFGGKQVVVCGYGEVGKGCCAALKALGAIVYITEIDPICALQACMDGFRVVKLNEVIRQVDVVITCTGNKNVVTREHLDRMKNSCIVCNMGHSNTEIDVTSLRTPELTWERVRSQVDHVIWPDGKRVVLLAEGRLLNLSCSTVPTFVLSITATTQALALIELYNAPEGRYKQDVYLLPKKMDEYVASLHLPSFDAHLTELTDDQAKYLGLNKNGPFKPNYYRY | not soluble |
| MAVIRIKKPRGPGEKDQPLEGEPKLKRIRIKTKVTDEDIKPKPKLKINLKKKKESADGKEKKNSLKLKLNLKKNEEPVKKIHKAPKLRLKPIRIPGEAYDSEASDIEDDPLIESGVILRILPDIQLEFVKNSLESGDYSGISIKWKNERHAVVTINDVMYGAILVDLPTVIEVNKSVDRKNLLKTFDVSQMLLCIRPIQEEEEVYALEAPDTEDLVVKHFEGIEDEIWENKETFLKGYNGAPLSDMEAKHLKEIALKGYDYKHGISPPLYNVRNRRFRRKMDPNEIDYVEKVVDMLLKQDKQAEEVSYDLVDKSELQARQERVSSWENFKEEPGEPLSRPALKKEEIHTIASAVGKQGAEEEGEEGMEEEEEEDLDLGAAFESEEEGSGAEGDKEQQQEEVGDEVDQDTGGEDDDDDDDGDIEAAGGESESDDEKDENRQHTELLADELNELETTLAHTKHKLSKATNPLLKSRFIDSIKKLEKEAELKRKQLQQTEDSVQKQHQHRSDAETANNVEEEEEEEEEEEEEDEVDEDEEDDEENDEDEDNVHEREHIQENKVVRELDEAPAEETLDQNDLDMMMLFGAEGDE | not soluble |
| MAVIYYDKDADLNLIKDKKIAIIGYGSQGHAHALNLKDSGLNVVVGLREGSKSWKKAEEQGLTVKTIEEAAKEADIIMILIPDEHQPEIYKKYIEKHLTEGKMLMFAHGFNIHYHQIIPPKNVDVTMIAPKSPGHIVRREYVEGRGVPALVAVYQDYTGKAKDIALAYAKGIGVTRAGVIETTFKEETETDLFGEQAVLCGGVTALIKAGFETLVDAGYQPEIAYFECLNELKLIVDLIYEGGLSFMRYSVSNTAEYGDYISQEKIVTKEVRENMKQMLKDIQTGKFAKDWILENQAGRPYFYTMRKKESEHLIEKVGKELRKMMPWLKERNVDEE | soluble |
| MAVPQLYYFTIRGFGEYIRLLFLDNGIKFEDIRFDYEGNEWQEFKKGMLLGQLPCLKVDGQEIVQTGAIMRHLGRVHGLNGSNEQEATFLDMFFEGVRDVRMKYVRYIYYDEGTREDCVNKTIPEALVKLEELFKAHSGDFIIGNKISYADYILFEELDVYHVLDANILDKFPTLKSFWERMWKRPNLNAYLEKRKADKVWINAIEKGMN | soluble |
| MAVSLSKGGNVSLTKEAPGLTAVTVGLGWDVRTTTGTDFDLDASAIAVNPTGKVYSDAHFVFFNNKQTPDQTIVHTGDNRTGEGAGDDEAINVNLAGLPADVDKIVFPVSIYDAENRSQNFGQVRNAYIRIVNQAGGAEIARYDLSEDAATETAMVFGELYRNGAEWKFRAVGQGYASGLVGIAQDFGVNV | not soluble |
| MAVTWAVSDGRAGNARQAEALARALHPDTVHALHLQARAPWRWAAPRRLPGANSAFGPAFAAQLQQPPGLVIGCGRQAALATRLLRARGSVAVQILDPRLDRRQWDLVVVPEHDALRGENVLTLLGSLHPVDDAWLAAGRAAFPAVGALPGPRVALLIGGPTTQVPWTLQALAAQCNAVQAQVRAAGGSLLITASRRTPPEVVALLRTLQQGNPGLLWCDARDGANPYAGLLGWADAIVASADSVNLLSEACATPVPVVAACAEFARGRVGAYVQALQQRQRLCAADEVLATTAAMTPVRETERIAAQVRMRLGLLEHHHHHH | soluble |
| MAVVMNWNNFSTNWDLKLLSLILAVIVWGGVSGGRTAELELTVPLELRNLPPGFSVASAVPTEASVTVAGPKILLLKLRSERIIIPLDARGVGEGTTLFTGLERRLGLPREATITRLFPATVEVRLIRSKTVQKPLEHHHHHH | not soluble |
| MAVVRRAVAARGLQMIAKPLTVVPGFDVWPGLLDISAQRALVEAVLAGAEQAPFSNYRTAYGKPMSVAMTALGSLGWTSDARGYRYVDRHPETGRPWPDMPPALLDLWTVLGDPETPPDSCLVNLYRDGARMGLHQDRDEADPRFPVLSISLGDTAVFRIGGVNRKDPTRSLRLASGDVCRLLGPARLAFHGVDRILPGSSSLVPGGGRINLTLRRARTALEHHHHHH | not soluble |
| MAYSLTRKLLKDWKYFMRHPEKTQGLFHVRPHDSDLHLWHVVMYEPRTSLEVYLLLYIGGNDQDPYIIMKCLSPNCCFPINRTVSMTHLNYLLLKDLGLQDLLFHIWQPLFHIQATEDLQYSPSTVKFNRAWNRIIYKDFKSYFPELIGTLQPGDYSIVKSYSKNHNISNSNGGSVNEFMSSYNAQSHTFHAQDNSKNPYTNSSIGKSSMLSTLNNNNVNKRTHDYNAIDFMTKNLLACDDDSIHPVVSSKRSRTLACPDETNDNRGSEHYTKRKKI | soluble |
| MAYWLMKSEPDELSIEALARLGEARWDGVRNYQARNFLRAMSVGDEFFFYHSSCPQPGIAGIARITRAAYPDPTALDPESHYHDAKATTDKNPWSAVDVAHVQTFPRVLELGRLKQQAGLVELPLVQKGSRLSVMPVTPEQWAVIVALRLEHHHHHH | soluble |
| MCDISTEDQLLEFARKAAESGDQTQTFEFKKHIGFLIRHLNVFPQPYNTLETSRNTIFLFAISSLDLLGELDNLLTPERRQAYIDWIYGLQFTNGNVCGFRGSHSCENSGYDEANLAQTYSALLSLAILGDDLKKVDRKAILKTVKTAQRDNGCFWSQGVGSESDMRFVFCAVAISHILDGDKEQTIDWTKLAGFLRQSLNIDGGIGQAPGDESHGGSTFCAIASLALSNRLWTEEVLTRRDIDRLIRWAIQKQDIGFHGRAHKPDDSCYAFWIGATLKILNAYHLVSKQHLREFLMICQHPHIGGFCKYPEPGGYSDILHTYFSIAALSLLGEPAVNPVHPSLNVSMRVAERIARLQFD | not soluble |
| MCDSHQKEEDNANTSERALFFNYHEFSYSFYEDLGSEDAKPTEHDEDHKLCITHFPNVYAARGSAEFQVTRVVRVPRRFDESRSSLETPQFSTQLPGSEPAAIVGDDGTSFVRCGRYDIGDHVFGCSSVSPLSEYLSAAELAEVVHRVNGFLLREEGEVFGWRNLSGLLLDMLTGGLWSWVLGPLLSRPVFQESLALEQYVAQLNSPGGLLHERGVRLVLPRRSGCLSLDFVVPRPK | not soluble |
| MCEIFIRANQRSYSVQARSLRLHGVATSVRLEQLFWDVLEEIAARDGMRVTQLIERLYDELVQYRGEAANFTSFLRVCCLRYQVLQAEGRIPADATVPIRSLDAQAVLRGLPANLYDSRPLG | soluble |
| MCENEEYRERFPDKHFDLETVLQAKVRPICVVPERTFIGFFHREKSKEEEEKEDVSLDFLKGVMSFDSIWEEIMKQEPEESASEHVIYIVSWNDHYFVLLVNHDAYYIIDTLGERVYEGCNQAYVLKFDQDAEIKRLPSVIKDNKADMGSQKQGGKNKYEQPERSKESEEQGEEVVVCRGKESCREYIKSFLAAIPIQQVKADMKEGLVSSFHHRLQIELYYTKHLHHRQPNMFESSTTKVTVSEATVSMTVAWLLASQFSNSGGFGCEMAELLGIKV | soluble |
| MCFRTENGDFFGWEGVENTVGCGAGTCTHVWNYAQTVAFLFPELEQSMRRIEFLQETQADGYMPFRTYRPFGLPAWEMLPSADGQLGAVVRLYREWRLSGDNRLIEDCWDGVVRSMEYAIRTWDTDGDFVPDSAQHVTYDTELYGMTSMVSTLFFAALIAAAEMAEYMGDQERARRYRDGAEKGAKLMDEKCWNGEYYIQLIDDVDKYRYQYGKGCLSDQLLGQFLAQEAGLGYVLPKNHVKKAAESIFRYNFIERASDFGHVQRAYIFNDEMGLTPCTWPLGERPRFPFIYFGEVWTGIEYEVAALLIREDLLEEGLTIVKAVRDRQDGYRRNPWSENESGYYYTRAMASYSILNALSGFSCDQRKNQMSFQPKLNQDNFRCFWCNGKSWGIFSQKKEKGEIRQELQVLYGEKDVSVINLEHHHHHH | not soluble |
| MCGIFAYLNFLAPKKRSEIVDILVQGLQRMEYRGYDSAGIAIDGSNDIENPHSKIALLRKRGKVSVLNDYIKENNEKLNMDMEYNIHCGIAHTRWATHGSPRDVNSHPHRSNDNNEFLVVHNGIITNYREIKEYLEKKGHKFESETDTEVIAKLTQHVHDRYPDFSFRQLVETVIQQLEGAFALAFKSSRFPGQLVASRRGSPLLVGIKSNSTLHTSHFPVSYSKGRCFMSNNATHLREETSFVETPNNILDLSIAVRNPSGSAKLPDNNSTTRPFDSTDFEVEYFIASDAAAIIEHTKQVLFLEDDDVAFVEDGSLTIHRISRHADSGEQKREVQLLELEIQEIMKGSYKTFMQKEIFEQPESVVNTMRGRVLPSGQVVLGGLKEYLPAIKRCRRLIMVACGTSYHSAIACRQVLEELSELPVVVELASDFLDRETPIFRNDVCLFISQSGETADTLMALRYCKPRGALTIGVTNTVGSSIGRESHCGIHINAGPEIGVASTKAYTSQIVSLLLFALTISEDRISKMKRRAEIIDALNNLPILIRDVLDLDDQVLKIAEQIYKDKSLLIMGRGLNFATCLEGALKIKELSYMHCEGIMSGELKHGPLAMVDEFLSICMVVCNDHVYKKSLNALQQVVARKGAPIIIADSSVPESDLAGMKHVLRVPRTVDCVQNILTVIPLQLLSYHIAELNGANVDRPRNLAKSVTVE | not soluble |
| MCGIVGFIGEQDAKEILLKGLEKLEYRGYDSAGIAVQAENGVVVYKEKGRIAKLREIVDENVAASVGIGHTRWATHGVPSKVNAHPHQSTSKRFTLVHNGVIENYELVKKEYLQDVTFVSETDTEVIVQLMEQQVSTGLSVEEAFRNTLSLLHGSYAIGLLDAENPNMIYVAKNKSPLLVGVGDNFNVVASDAMAMLQVTDQFIELMDKEIVIVMKESITIKNLQGETIERAPFTAELDASDIEKGTYPHFMLKEIDEQPLVIRNIIQKYQDENGEIELDQDIRNAILDSDRIYIIACGTSYHAGLVGKQFIEKFAKMPVEVHVASEFSYNMPLLTERPFFIYISQSGETADSRAVLVQTNEMGHKALTITNVPGSTLSREADYTLPLYAGPEIAVASTKAYTAQLAVLSILAADIAKAKGEVLGFDLTHELGLVANAMIELCDQKEEMDALAKQFLATTRNCFFIGRSVDFYVGLEGALKLKEISYIQAEGFAGGELKHGTIALIENGTPVIALATQEHVNLGIRGNVKEVVARGANPCIISMKGLEMEGDSFVLPAVHEALAPLVAVIPLQLISYYAALHRECDVDKPRNLAKSVTVE | not soluble |
| MCGRFAQSQTREDYLALLAEDIERDIPYDPEPIGRYNVAPGTKVLLLSERDEHLHLDPVFWGYAPGWWDKPPLINARVETAATSRMFKPLWQHGRAICFADGWFEWKKEGDKKQPFFIYRADGQPIFMAAIGSTPFERGDEAEGFLIVTAAADQGLVDIHDRRPLVLSPEAAREWMRQEISGKEASEIAASGCVPANQFSWHPVSRAVGNVKTRARSLEHHHHHH | not soluble |
| MCGRFTLTLPPDLLAEIIGEIEAARVQPRYNIAPAQEVAVVRQDAGGRRHLDYLRWGLIPPWAKDASVGNHMINARSETVAEKPAFRHAFRSRRCLVLASGFYEWKAEGNRKQPLYIHMKDGGPMVFAGLWESWKSPEGAIVESCTILTTYSNSLIRPLHDRMPVILGRSDWDIWLSREATSEELTPLFQPYPSDLLAMYPVGTGVNSPRNDSPDLLEPLNEPLEHHHHHH | not soluble |
